According to article PMC9065173:

Target: CXC-chemokine receptor 4 (CXCR4) (human (endogenous in MOLM13 and CEM)) (UniProt P61073)
Sequence of UniProt P61073 (P61073 whole entry): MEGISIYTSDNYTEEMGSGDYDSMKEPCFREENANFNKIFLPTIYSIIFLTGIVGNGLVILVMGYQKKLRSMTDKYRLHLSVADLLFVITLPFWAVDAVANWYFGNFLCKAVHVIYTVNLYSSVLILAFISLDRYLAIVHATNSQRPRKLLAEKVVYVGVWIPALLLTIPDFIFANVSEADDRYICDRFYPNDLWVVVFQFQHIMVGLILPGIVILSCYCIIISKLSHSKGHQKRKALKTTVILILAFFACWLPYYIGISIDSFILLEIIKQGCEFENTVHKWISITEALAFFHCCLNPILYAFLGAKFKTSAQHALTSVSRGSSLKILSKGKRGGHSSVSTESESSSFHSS

Question: How did the apoptosis of MOLM13 cells after 4 days with T140-KLA-EVs (annexin V / PI staining, flow cytometry); no difference between T140-KLA-EVs and KLA-EVs in CXCR4-negative AsPC-1 cells turn out when “bifunctional T140-KLA peptide, ligated onto the RBCEV surface (T140-KLA-EVs)” was run?
Answer: The apoptosis of MOLM13 cells after 4 days with T140-KLA-EVs (annexin V / PI staining, flow cytometry); no difference between T140-KLA-EVs and KLA-EVs in CXCR4-negative AsPC-1 cells was over 50%.
